# Test results taken from patent US20230331809A1 (Zymeworks, published 2023).
# How the values were obtained:
# [1] = target: T1, PD-L1 (Programmed death-ligand 1) on cells (UniProt Q9NZQ7 19-290); experiment: flow cytometry on PD-L1 transfected CHO-S cells, sample without uPa
# T1 construct: whole, on cells
# [2] = target: T2, PD-1 (Programmed Cell Death Protein 1) on cells (UniProt Q15116 25-288); experiment: flow cytometry on PD-1 transfected CHO-S cells, MFI; * poor fit
# T2 construct: whole, on cells
# [3] = target: T3, CD3 (Cluster of Differentiation 3) on Jurkat cells and on pan T cells (human, UniProt P07766 23-207); experiment: cell ELISA on Jurkat cells (CD3), OD450; EC50 relative to v30421
# T3 construct: whole, on cells
# [4] = target: T3, CD3 (Cluster of Differentiation 3) on …; experiment: cell ELISA on Jurkat cells (CD3), OD450
# [5] = target: T4, CD40 (Cluster of Differentiation 40) on cells (UniProt P25942 21-277, limits assumed); experiment: cell-based or functional assay
# [6] = target: T4, CD40 (Cluster of Differentiation 40) on …; experiment: flow cytometry on Raji cells, sample without uPa
# [7] = target: T4, CD40 (Cluster of Differentiation 40) on …; experiment: flow cytometry on Raji cells (CD40), MFI
# [8] = target: T4, CD40 (Cluster of Differentiation 40) on …; experiment: cell-based or functional assay; remark: listed apart in the source
# [9] = target: T4, CD40 (Cluster of Differentiation 40) on …; experiment: flow cytometry on Raji cells (CD40), MFI; sample treated with uPa (variant has no cleavage site)
# [10] = target: T4, CD40 (Cluster of Differentiation 40) on …; experiment: flow cytometry on Raji cells (CD40), MFI; sample treated with uPa; EC50 relative to v32477 -uPa
# [11] = target: T4, CD40 (Cluster of Differentiation 40) on …; experiment: flow cytometry on Raji cells, samples with and without uPa
binder,measurement,setting,value
"Variant 30436: WT PD-1:HA PD-L1 masked CD3 × Her2 Fab × scFv Fc, PD-1 cleavable (not treated with uPa) (bispecific antibody, human IgG1, kappa, L234A L235A, also called masked, heavy-chain-cleavable variant) heavy: not shown light: AFTVTVPKDLYVVEYGSNMTIECKFPVEKQLDLAALQVFWMMEDKNIIQFVHGEEDLKVQHSSYRQRARLLKDQLSLGNAALQITDVKLQDAGVYTCLIAYKGADYKRITVKVNAEAAAKEAAAKDIQMTQSPSSLSASVGDRVTMTCSASSSVSYMNWYQQKPGKAPKRWIYDSSKLASGVPARFSGSGSGTDYTLTISSLQPEDFATYYCQQWSRNPPTFGGGTKLQITRTVAAPSVFIFPPSDEQLKSGTASVVCLLNNFYPREAKVQWKVDNALQSGNSQESVTEQDSKDSTYSLSSTLTLSKADYEKHKVYACEVTHQGLSSPVTKSFNRGEC not shown",binding result,[1],no binding (tested: titrated from 200 nM at a 1:3 dilution)
same,Fold wrt v31931,[2],> 35 fold
same,Fold wrt WT,[3],150 fold
same,EC50,[4],180 nM
"Variant 32479: HA PD-1:WT PD-L1 masked aCD40 Mab, PD-L1 cleavable (not treated with uPa) (antibody, human IgG1, kappa, also called v32479; untreated v32479) heavy: not shown light: AFTVTVPKDLYVVEYGSNMTIECKFPVEKQLDLAALIVYWEMEDKNIIQFVHGEEDLKVQHSSYRQRARLLKDQLSLGNAALQITDVKLQDAGVYRCMISYGGADYKRITVKVNAEAAAKEAAAKMSGRSANADIQMTQSPSSVSASVGDRVTITCRASQGIYSWLAWYQQKPGKAPNLLIYTASTLQSGVPSRFSGSGSGTDFTLTISSLQPEDFATYYCQQANIFPLTFGGGTKVEIKRTVAAPSVFIFPPSDEQLKSGTASVVCLLNNFYPREAKVQWKVDNALQSGNSQESVTEQDSKDSTYSLSSTLTLSKADYEKHKVYACEVTHQGLSSPVTKSFNRGEC","CD40 reporter gene assay, fold masking of activity",[5],55 fold
same,fold reduction of binding vs unmasked v32477,[6],14 fold
same,EC50,[7],14 nM
same,"EC50, CD40 RGA, FcgRIIB CHOK1 (sample v32479 - uPa)",[8],2.64 µg/mL
same,"EC50, CD40 RGA, WT CHOK1 (sample v32479 - uPa)",[8],44.7 µg/mL
same,"Fold wrt WT (EC50), CD40 RGA, FcgRIIB CHOK1 (sample v32479 - uPa)",[8],54.3 fold
same,"Fold wrt WT (EC50), CD40 RGA, WT CHOK1 (sample v32479 - uPa)",[8],326 fold
"Variant 32477: Unmasked aCD40 mAb (antibody, human IgG1, kappa, also called v32477) heavy: not shown light: DIQMTQSPSSVSASVGDRVTITCRASQGIYSWLAWYQQKPGKAPNLLIYTASTLQSGVPSRFSGSGSGTDFTLTISSLQPEDFATYYCQQANIFPLTFGGGTKVEIKRTVAAPSVFIFPPSDEQLKSGTASVVCLLNNFYPREAKVQWKVDNALQSGNSQESVTEQDSKDSTYSLSSTLTLSKADYEKHKVYACEVTHQGLSSPVTKSFNRGEC",EC50,[9],0.94 nM
same,Fold wrt WT,[10],0.96 fold
same,EC50,[11],1 nM
same,EC50,[7],0.98 nM
same,"EC50, CD40 RGA, FcgRIIB CHOK1 (sample v32477 + uPa)",[8],0.03 µg/mL
same,"EC50, CD40 RGA, FcgRIIB CHOK1 (sample v32477 - uPa)",[8],0.05 µg/mL
same,"EC50, CD40 RGA, HEK Blue only (sample v32477 + uPa)",[8],0.13 µg/mL
same,"EC50, CD40 RGA, HEK Blue only (sample v32477 - uPa)",[8],0.15 µg/mL
same,"EC50, CD40 RGA, WT CHOK1 (sample v32477 + uPa)",[8],0.1 µg/mL
same,"EC50, CD40 RGA, WT CHOK1 (sample v32477 - uPa)",[8],0.14 µg/mL
same,"Fold wrt WT (EC50), CD40 RGA, FcgRIIB CHOK1 (sample v32477 + uPa)",[8],0.71 fold
same,"Fold wrt WT (EC50), CD40 RGA, HEK Blue only (sample v32477 + uPa)",[8],0.86 fold
same,"Fold wrt WT (EC50), CD40 RGA, WT CHOK1 (sample v32477 + uPa)",[8],0.75 fold
